Where two headings read alike, the source gives them in different places.

Nine molecules from patent US20250277208A1, “Method of Peptide Library Construction and Peptides Thereof” (Alcamena Stem Cell Therapeutics, LLC, priority 2024, published 2025) can be followed below.

One assay concerns the target IL-6 signaling (Homo sapiens, UniProt P05231). As to the kind of experiment: IL-6 Bioassay (Promega), luciferase reporter cells, inhibition of IL-6-induced cell signaling. The assay is classed as cell-based. Particulars: peptides incubated with IL-6 for 10 min, IL-6 0.5 nM, cells 6 hours. The procedure: To verify the ability of the peptides of the invention to inhibit IL-6-signaling, they were tested with the IL-6 Bioassay Kit (Promega). This kit includes human cells engineered to express the IL-6 receptor and a luciferase reporter driven by a response element. When IL-6 binds, the IL-6R transduces intracellular signals resulting in luminescence (fluorescence). Inhibition of IL-6 interaction with the receptor leads to the decrease of the luciferase expression and lower fluorescence.
The selected peptides were incubated with IL-6 for 10 min before being added to cell culture medium. […] Peptides 27 (2), 38 (2) and 45 (2) were also tested.
The ability of peptides to inhibit IL-6 signaling pathway was tested with the IL-6 Bioassay from Promega (cat #JA2501). The bioluminescent signal is detected and quantified using Bio-Glo™ Luciferase Assay System. Different concentrations of the test peptides were mixed with IL-6 (0.5 nM) and added to the IL-6 Bioassay Cells according to the manufacturer's instructions. Cells were incubated for 6 hours in a humidified incubator at 37° C. and 5% CO2 concentration. Following incubation, 75 microliters of the Bio-Glo™ Reagent was added to the cell culture and the luminescence was measured with a Biotek Synergy HTX plate reader. Data was analyzed according to manufacturer's recommendations.
(A reporter such as luciferase makes a cellular process visible.)

The next assay deals with T1, IL-6 (Homo sapiens, UniProt P05231).
T1 construct: purchased R&D Systems BT7270B
Description: Biacore surface plasmon resonance binding of peptides to immobilised IL-6. The note with it: Table 2, mutation combinations; N terminus acetylated, C terminus amidated; nd = not detected; read-out: KD (nM) P < 0.05.
From the text: Two DNA fragments were amplified from a synthetic fragment of the IL-6R. The 5′ fragment was amplified with forward primer and a mixture of 432 reverse primers, each containing an overhang of 6 codons. The 3′ fragment was amplified with a mixture of 432 forward primers, also containing overhangs of six degenerate codons and the reverse primer. Either the first or the second nucleotide of each codon was replaced with a degenerate base. Following PCR amplification, DNA fragments were phosphorylated and ligated leading to various sequence rearrangements shown at the bottom of the FIG. 3. Four hundred thirty-two forward and reverse oligos with an overhang of 6 codons from the IL-6R binding domain were used for PCR. A degenerate nucleotide was inserted at the first or second position of each codon. When ligated, these sequences generated a library of 1×10^13 different DNA sequences. The library of DNA sequences was taken through eight rounds of mRNA Display generating a peptide library. Eighteen of the most abundant peptides in the peptide library were synthesized in a linear form and tested for binding to IL-6 using Biacore. One of the peptides (#9) (“Peptide 9”) from the peptide library, with the sequence of […] The twelve non-terminal residues represent the PepFusion library-derived DNA sequences, while N-terminal serine and C-terminal glycine come from the flanking linkers and were kept as a precaution, in case linker sequences contributed to peptide interaction with its target.
Binding reactions were performed in HBS-P/2% DMSO buffer (10 mM Hepes, pH 7.4, 150 mM NaCl, 0.05% P-20, 2% DMSO), which was filtered through […] filters and degassed before use. Biotinylated recombinant human IL-6 (IL-6-Biotin) was bound to the surface of a Biacore SA sensor chip of a Biacore T200 surface plasmon resonance unit as follows. The streptavidin surface of the chip (flow cells 1 and 2) was activated by injecting 20 μl of 1 M NaCl/50 mM NaOH at 20 μl/min, in 3 pulses. Biotinylated Recombinant Human IL6 was diluted with HBS-P buffer and an aliquot of 100 μl (2 micrograms/ml) was injected into flow cell 2 at 5 microliters/min to yield a signal of 1400 response units (RU) (10 microliters were injected). Any remaining activated residues on the streptavidin surface of flow cells 1 and 2 were blocked with 30 microliters 500 nM free Biotin.
(§1) Affinity scouting assay was performed at a flow rate of 30 microliters/min at 25° C. The analyte (60 microliter aliquots of peptides, at concentrations of 20 μM in HBS-P/2% DMSO buffer) was injected into flow cells 1 and 2 and the association reaction was recorded. The surface was then washed with HBS-P/2% DMSO for 3 min and the dissociation of the analyte from the bound IL6 was followed over time. The surfaces of the flow cells were regenerated with 30 microliters of 10 mM NaOH, followed 50 microliters of HBS-P/2% DMSO buffer.
as §1, with “Kinetics analysis of binding was performed” for “Affinity scouting assay was performed”, “concentrations of 0, 1.25 μM, 2.5 μM, 5 μM, 10 μM and 20 μM” for “concentrations of 20 μM”, “DMSO buffer. Sensorgrams were analyzed using BIAeveluation 3.2.1 software (Cytiva). Values from the reference flow cell were subtracted to obtain the values for specific binding. Data were globally fitted to the Langmuir model for a 1:1 mass transfer binding.” for “DMSO buffer.”
In general terms: SPR reads the build-up and loss of mass on a sensor chip optically.

The target of assay [1] is T2, Biotinylated recombinant human IL-6 (human, UniProt P05231 30-212, biotinylated (sites not given)).
T2 construct: In the cell bioassay IL-6 (0.5 nM) was used in solution; also called Interleukin-6; IL-6-Biotin
As to the kind of experiment: SPR (Biacore), IL-6 on chip.

Assay [2] has as its target T2, Biotinylated recombinant human IL-6. As to the kind of experiment: cell-based or functional assay.
For assay [3] the target is unchanged. Description: SPR (Biacore), IL-6 on chip. The source holds these as a separate data set.

IL-6 signaling, sequence (P05231 30-212): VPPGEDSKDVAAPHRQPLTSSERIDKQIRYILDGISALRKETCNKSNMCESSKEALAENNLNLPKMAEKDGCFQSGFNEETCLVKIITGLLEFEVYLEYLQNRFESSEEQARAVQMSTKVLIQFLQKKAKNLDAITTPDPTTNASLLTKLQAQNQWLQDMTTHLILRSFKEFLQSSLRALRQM

With “Ac-SFRDLIRMMKVCVG-NH2 [Peptide 90, SFRDLIRMMKVCVG]”, the IC50 (commonly the concentration that inhibits the measured activity by half) on IL-6 signaling worked out at 1200 nM.

As to “Ac-TIRDLIRMMKVCVG-NH2 [Peptide 100, TIRDLIRMMKVCVG]”, the IC50 at IL-6 signaling came out at 16800 nM.

In the case of “Ac-SVRDLLRRMKVCVG-NH2 [27(2), SVRDLLRRMKVCVG]”, the dissociation constant (Kd) (as a rule, the equilibrium constant for the complex coming apart) at IL-6 came out at 580 ± 156 nM. In addition, on IL-6 signaling, the IC50 turned out to be 580 nM.

As to “Ac-SVRDLLRRMCHIVG-NH2 [9(2), SVRDLLRRMCHIVG]”, the IC50 on IL-6 signaling was found to be 85 nM.

Regarding Ac-ATIRDLLRRMCHIVG-NH2 [Peptide 38 (2)], the Kd in assay [1] came to 115 nM. Moreover, the “IC50, inhibition of IL-6-induced cell signaling (IL-6 Bioassay, luciferase reporter cells)” value (shortened to “IC50, inhibition”) in assay [2] worked out at 142 nM.

In the case of Ac-SFRDLIRMMKVCVG-NH2 [Peptide 90], the Kd was determined as 30 nM in assay [3] and 42 nM in assay [1]. Moreover, in assay [2], the “IC50, inhibition” value came to 1200 nM.

Regarding Ac-SVRDLLRRMCHIVG-NH2 (peptide 9 with protected termini) [Peptide 9 (2)], the Kd amounted to 300 nM in assay [3] and 354 nM in assay [1]. Besides, in assay [2], the “IC50, inhibition” value stood at 85.4 nM.

As to Ac-FAFRDLLRRMCHIVG-NH2 [Peptide 45 (2)], in assay [1], the Kd was 147 nM. In assay [2], the “IC50, inhibition” value came to 72 nM.

As to Ac-TIRDLIRMMKVCVG-NH2 [Peptide 100], the Kd in assay [3] worked out at 50 nM; in assay [1] it was 59 nM. In addition, the “IC50, inhibition” value in assay [2] is 16800 nM.
